Values of other authors in paper PMC4737190.
Where “and” joins values, the source holds several entries; their conditions need not be identical. Equal entries are not always repeated.

Target: linear (Met1-linked) di-ubiquitin (Homo sapiens) (UniProt P0CG47)

NEMO UBAN, sequence (Q9Y6K9 242-350): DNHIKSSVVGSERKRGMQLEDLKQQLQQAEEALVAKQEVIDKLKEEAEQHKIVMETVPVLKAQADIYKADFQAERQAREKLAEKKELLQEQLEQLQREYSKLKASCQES

Kd: 1600 nM and 3700 nM
Substance: NEMO UBAN (from UniProt Q9Y6K9)
